Experimental findings from CN114702585A (SHENZHEN BINDEBIO TECH CO LTD, dated 2022) are described below.

The target in the assay is T1, CD22蛋白 (购自义翘神州) (UniProt P20273 20-687).
T1 construct: Bought recombinant protein; also called CD22蛋白抗原
T1 sequence (looked up): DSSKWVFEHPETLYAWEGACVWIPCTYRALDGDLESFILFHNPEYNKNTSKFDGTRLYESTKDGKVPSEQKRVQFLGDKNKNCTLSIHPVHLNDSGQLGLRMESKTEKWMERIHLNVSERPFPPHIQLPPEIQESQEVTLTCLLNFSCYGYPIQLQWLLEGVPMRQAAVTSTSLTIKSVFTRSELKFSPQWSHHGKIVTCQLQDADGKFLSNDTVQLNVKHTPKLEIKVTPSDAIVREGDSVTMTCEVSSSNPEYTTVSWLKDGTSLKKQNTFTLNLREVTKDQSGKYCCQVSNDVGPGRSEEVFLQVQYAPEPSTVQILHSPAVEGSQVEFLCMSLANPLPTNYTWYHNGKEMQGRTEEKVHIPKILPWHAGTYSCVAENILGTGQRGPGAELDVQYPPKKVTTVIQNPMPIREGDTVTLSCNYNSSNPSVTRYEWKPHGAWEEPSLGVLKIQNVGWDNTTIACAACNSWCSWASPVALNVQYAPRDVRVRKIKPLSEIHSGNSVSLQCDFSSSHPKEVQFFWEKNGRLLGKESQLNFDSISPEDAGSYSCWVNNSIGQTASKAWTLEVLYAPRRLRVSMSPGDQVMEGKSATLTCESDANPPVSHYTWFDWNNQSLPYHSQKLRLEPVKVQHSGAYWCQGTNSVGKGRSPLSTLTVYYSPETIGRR
The assay can be described thus: BLI (OCTET K2), CD22 protein loaded on AHC sensor, 4F6 in solution 500-5.21 nM.

B1: 抗CD22的单克隆抗体4F6 (antibody, V domains shown)
VH: EVLLQQSGPELVKPGASVKIPCKASGYTFTDYNMDWVKQSHGKSLEWIGDIDPNNGITIYNQKFKGKATLTIDKSSSTAYMELRSLTSEDTAVYYCARDRYDRGYALDYWGQGTSVTVSS
VL: DIVMTQSPSSLAMSVGQKVTMSCKSSQSLLNSSNQKNYLAWHQQKTGQSPKLLVYFASIRDSGVPDRFIGSGSGTDFTLTINSVQAEDLADYFCQQHYSTPFTFGSGTKLEIK
notes: also called 4F6抗体; CD22单克隆抗体
Regarding B1, the affinity, expressed as Kd, was 3.14 nM.
